Source: patent US20040053365A1 (LUDWIG INSTITUTE FOR CANCER RESEARCH, published 2004)

Target: T1, recombinant human GM-CSF (human, UniProt P04141 18-144)
T1 construct: also called rhGM-CSF
Test: SPR, BIAcore 2000, 100 RU rhGM-CSF on chip, antibody 1-10 nM, Langmuir 1:1 model

T1 sequence (P04141 18-144 limits assumed): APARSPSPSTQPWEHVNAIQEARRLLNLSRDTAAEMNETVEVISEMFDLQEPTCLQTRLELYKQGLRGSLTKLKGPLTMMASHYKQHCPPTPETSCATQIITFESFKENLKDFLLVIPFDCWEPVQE

B1: chimeric 19/2 anti-human GM-CSF monoclonal antibody (antibody, V domains shown)
VH: EVQLQQSGPELVKPGASVKISCKASGYTFTDYNIHWVKQSHGKSLDWIGYIAPYSGGTGYNQEFKNRATLTVDKSSSTAYMELRSLTSDDSAVYYCARRDRFPYFDYWGQGTTLRVSS
VL: DIVMIQSQKFVSTSVGDRVNITCKASQNVGSNVAWLQQKPGQSPKTLIYSASYRSGRVPDRFTGSGSGTDFILTITTVQSEDLAEYFCQQFNRSPLTFGSGTKLELKR
A kon of 510000 M⁻¹ s⁻¹ was found for B1 in this work.
